Assay results as given in publication PMC11481913, “Rational design of a flavoenzyme for aerobic nicotine catabolism” (mBio, 2024).

Target: the molecule itself
Test: SEC; Superdex 200 Increase 10/300 GL; molecular weight by elution (Fig. S2)

B1: PnaoΔN30 (residues 31–497) (enzyme, Pseudomonas putida S16, UniProt F8G0P1 31-496, looked up)
chain: IASQLLTLSAPAEAAVKTNVGPSRAGVGYDVIVIGGGFAGVTAAREASRSGLKTLILEGRSRLGGRTFTSKLQNQKVELGGTWVHWTQPNVWTEIMHYGLEVEETVGLANPETVIWVTEDNVKRAPAAEAFEIFGSACNEYYKEARNIYPRPFEPFFERKKLQHVDGLSAADYLEKLPLTREQKDMMDSWLSGNGHNYPETIAYSEIMRWFALSNFNMPTMFDSIARYKIKTGTHSLLEAIMADGNSEVKLSTPVTKVNQDKDKVTVTTEDGVFTASAVIVAVPINTLHDIEYSPKLSAAKVDMGSQRHAGAGVKGYIRVKQNVGNVMTYAPARNKLTPFTSVFTDHVDESGTLLIAFSADPKLIDINDIKAVEKALQPLLPGVEVTASYGYDWNLDPFSKGTWCTYRPNQTTRYLTELQKREGRLFFAGSDMANGWRGFIDGAIENGREVGHQVATYLKRENDNA
notes: Pnao, flavin-dependent pseudooxynicotine oxidase of Pseudomonas putida S16; N-terminal truncation of 30 residues, residues 31-497; Cloned in pET-28a between NcoI and XhoI, which probably gives a C-terminal His6 tag; also called pseudooxynicotine amine oxidase; source: E. coli BL21(DE3), purified (Ni2+-NTA, size-exclusion chromatography)
stoichiometry N: 2
